Experiment [1] deals with human FcγRIIIA V158 (human) (UniProt P08637). Kind of experiment: competition flow cytometry on CHO DG-44 cells expressing human FcγRIIIA V158; competitor 50 nmol/L Alexa Fluor 488 labeled anti-CD70 IgG1.
Experiment [2] shares this target. The experiment can be described thus: competition flow cytometry on CHO DG-44 cells expressing human FcγRIIIA V158; competitor Alexa Fluor 488 labeled anti-CD70 IgG1.
In experiment [3] the target is murine FcγRIV (murine). Kind of experiment: competition flow cytometry on CHO DG-44 cells expressing murine FcγRIV; competitor Alexa Fluor 488 labeled anti-CD70 IgG1.
murine FcγRIV (murine), sequence (A0A0B4 entry or part of it limits assumed): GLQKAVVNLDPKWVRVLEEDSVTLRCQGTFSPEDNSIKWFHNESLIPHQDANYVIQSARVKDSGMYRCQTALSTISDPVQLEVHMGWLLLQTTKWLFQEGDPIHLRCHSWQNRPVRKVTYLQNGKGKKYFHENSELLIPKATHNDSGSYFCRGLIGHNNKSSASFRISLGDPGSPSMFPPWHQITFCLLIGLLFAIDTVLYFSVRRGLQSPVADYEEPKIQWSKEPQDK
Experiment [4] concerns the target murine FcγRIV (murine). Kind of experiment: competition flow cytometry on CHO DG-44 cells expressing murine FcγRIV; competitor 200 nmol/L Alexa Fluor 488 labeled anti-CD70 IgG1.

These results are taken from US20190276796A1.

human FcγRIIIA V158 (human), sequence (P08637 17-254 F176V): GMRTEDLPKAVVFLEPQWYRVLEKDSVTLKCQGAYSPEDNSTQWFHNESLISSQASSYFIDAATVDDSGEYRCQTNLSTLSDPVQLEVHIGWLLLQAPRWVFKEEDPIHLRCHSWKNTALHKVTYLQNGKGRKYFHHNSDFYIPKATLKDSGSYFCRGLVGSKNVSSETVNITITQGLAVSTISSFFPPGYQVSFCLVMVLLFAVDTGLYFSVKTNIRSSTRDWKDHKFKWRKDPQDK

As for “h1F6 antibody from host cells cultured in the presence of 50 µM alkynyl fucose peracetate (non-core fucosylated anti-CD70 antibody)”, the EC50 is 7.99 nM in experiment [1] and 20.8 nM in experiment [4]. Moreover, in experiment [2], the fold difference in EC50 against the parent antibody was determined as 14 fold. Also, in experiment [3], the fold difference in EC50 against the parent (control) anti-CD70 antibody was determined as 18 fold.
